Assay results taken from paper PMC6330057 (Nature cell biology, 2018).

B1: CrSSNA1(20-111) (domain or fragment, Chlamydomonas reinhardtii, UniProt Q9XF62 20-111, looked up)
chain: EDLREKREEIIKQLREDDAEKAKITQELQILTKRLAQVNESIARKTETKNEYDKVISETEAAYLKILESSQTLLTVLKREAVNIAKKKQASS
B2: CrSSNA1(1-105) (domain or fragment, Chlamydomonas reinhardtii, UniProt Q9XF62 1-105, looked up)
chain: MSAQGQALQNHNNELVKCIEDLREKREEIIKQLREDDAEKAKITQELQILTKRLAQVNESIARKTETKNEYDKVISETEAAYLKILESSQTLLTVLKREAVNIAK

Biological target: the molecule itself
Assay: negative-stain electron microscopy of fibrils

Protein | binding result
B1 | binds
B2 | binds
